Test results published in the DeepSol protein solubility set.

test: soluble on expression in E. coli; label from the status in PepcDB or PDB records

Soluble on expression in E. coli, not soluble:
SLWYYLFKYIFMGPLFTLLGRPKVEGLEYIPSSGPAILASNHLAVADSFYLPLVVRRRIWFLAKSEYFTGTGLKGWINRWFYSVSGQVPIDRTNADSAQGALQTAVVLLGQGKLLGMYPEGTRSPDGRLYKGKTGLARLALHTGVPVIPVAMIGTNVVNPPGRKMLRFGRVTVRFGKPMDFSRFEGLAGNHFIERAVTDEVIYELMGLSGQEYVDIYAASVKDGRNAGGAGANPNSTDAARIPETAAEG, MLKQSGKLRADATPAEVEQAVRDYLRQKAIHMPRGKGELYDKEAKRAEAMQDGQQTNGVLNGKGKKLGQSKTASVPSVKPEPWNGGKRVDRVLVLLIEYPDFPHNNIQPTETDMYYKDYTREHYEDMIFGGDDGYYDGPNGEKLISVKKYYEEQSGGSYSIEGKVAGWYQAKYPAKYYGGNVPAPDGNDANPRALVREALAAAAKDPSINLREFDQEDRYDLDGDGNYREPDGLIDHLMIIHSSVGEEAGGGSLGGAAIWSHRWNLGSVYRIPNTTTDVPYWRGQLAAYDYTIEPADGAAGVFAHEYGHDLGLPDEYDTIYSGLGEPIAYWSIMSSGSWAGRIPGTEPTGFSAWAKQFLQSTMPGSNWLSGTTVEWNEVTQNGVEVVLDEASTKGTNNDAVRINLLKKETVVTIPPSGAYAYFSGSGNNLDHTMSTTIDLTGASKATLAFDTWYAIEKDWDYGAVEVKPHGSNEWTTIQGNITTTNNPYGQNPGNGITGTSNGWVKAEFDLSAYAGQTIDLRFHYITDVAVSEAGWYFDNIQVTADGAAVLADGAEGDSSFVMTGFEKSNGKRYSDHYYLLEWRNHRGVDEGLAHILRGGRLLSYDPGLVVWYVDEGYDNNWTGVHPGEGFLGVVDADQHTLKWSGNTTASTRYQVHDAAFSLQKGASFRVAINGSQLIDNDTSPTPVFDDSRSYDNKGAVDAGRNVPNYGLKIRVIGESADRTAARVLIYR, MGSDKIHHHHHHMTSAIDKNSQLEAQAWELLEESVIFYQGKPIGTVAAHDPESDALNYDQCFLRDFVPSALVFLMYGKAEIVRNFLVETLKLQSHEKQIDCFEPGAGLMPASFKVHFNGNEEFLVADFGEQAIARVPPIDSCMWWILLLRAYEKATGDLSLARQPDFQAGIKLILDLCLVHRFSMYPTMLVPDGAFMIDRRMGVYEHPLEIQVLFYASLRAASELLLPDGDGDSYLGKVNRRLGSLKYHIRNYYWLDLKRLGEIYRYKDNEFGKEIVNKFNINSESIPSWLTEWLPETGGYLAGNLGPGRIDFRFFALGNLMAILTSLASEKESQSIMNLFVQRWQDLIGYMPVKICFPALEGLEWRIVTGCDSKNRAWSYHNGGNWPVLLWLFASAAQKAGRTELAQAAIAIAERRLLKDKFPEYYDGNNGRLIGKEARINQTWSIAGLLTAKKFVENPDYLELISFAEGLEVPGCSL, MGHHHHHHSHLFQGDDAKEKIAVVDETNELYPVFSKQLKAVDTDGDLDVKLSKQSEDEVTKQVKDESLDGMLIIKRDEKGTISGTYKALTISDESTYQTLQQALTQTKTAVGTAELGVSQETISSLYAPVTVGQKALKEGAKSEEELGQT, MGSDKIHHHHHHMARLGVDFGTSNTAAGLVQAGHPRVLPLEPGAQTLPTAVFIDFAARRYVYGTDAARAMMDGQEGRFLRGLKSILGTPLAREPRMFLNERLTLIEVIARFLAEIRTRAERLSGERFDRALSGRPVHFHSASAERDAQACTDLHDAYLMAGFSEVCFLPEPEAAALAVAGQGRMLIVDIGGGTSDFTLCDRRGTTTRMLASRGLRIGGTDFDRVLSLDHAMPLLGYEAQIGAELGEASHSAPRALFHDLASWEKIAFVYDPATLREVRRWVRLAEQPRLFERLAEVLESHLGHDVAYAVEAGKIAANGAAAGRIALDIVERGLGADLGNAAMQAALAGFADEIATCAMQTVRDAGVGPDSVDQVVFVGGSSLMGVIRAALARVLPGAEQQDSEVFTAVVHGLALASEDQ, MGSDKIHHHHHHMIHIRPFQHQDADYRVMADVYNALAPDAPLSAIEWRIRDEIHNPNLPLCRWIGELDGRAGGYAEYYQPTWCADPTHLEMQIVVHPAVQGRGLGRALWQHLQMAWQPLRPHHIWLKVREDWQAGLMFAGRRQFHESRRVWVSRLDLATFDPQPFSGSIERVTAQQIELISFAALATADQGFWQQLYEFERQTTGDVPSPFPVTMPTYDQWIKLYQPDHGALWEGSFAAVHEGQIVGISTLETIDDSTDVEVGFTAVRRDYRGRGIALALKLCTIAYAGAQGLSGIRTDNDSTNLAMWHINERLGFRRGPVWIVLHRCEQNEEVT, MNNIPVEIRLLKNRTVLVLTYGDEPKNLPAEFLRVYSPSAEVRGHGVGQDVLQTGKADVQIADLQPVGQYALKISFSDGHDSGLYDWAYLHRLAYGYDAMWQEYLDKLAAAGASRFEEK

Soluble on expression in E. coli, soluble:
MLFNSFQAKIDPSLADLFRNSDKEPFPAMTHELPPEKSLKARLLEQEDERISNVLAHEKRFSTEPVVIDDVFMSRLCVDSQPGCSRIPDIDIANVFRDDLESCTLSSSEDEEEEEEPIGQISTFEMLHAPRKPIVWSEQELSDFDMKSRLLDMRMDHWDLARIANVPKRIAKGETVNLRMPRYSAEVVKQRIAKGVTDIFGHFSLVPHTLTKSHKPVAERKQILIERYHDLMNDFDYATRPGSVESKKYANLTKRLNLCNDFLSAPKLPHRLFPRLIIRSIRPPETPKEPVKRKMRESESDDSVIIIPRKIEKEKPRPTTENVVLKKVEMEKKRPRSPELVPKKIVMEKERPSSPDSEAEEREHNLRIEKERHQKELEFRREALRKREQEREEHKKRAQEELRRQMTAALEESTRRQAEMNRQIEDEARKRDELQRIAEEKKRKQLLEDQCRAKQEKEKRDAEELEQMRLNIARLAGTKDVENALKSPSLVEIVPPSDARAFEMIKWNAVKCKIPENWEKRKDKFYRVFEWPSDAAQRDIERDEVVSIPRSKPIVIPQEDTYITRNRIPLKLPPKVKQAVPALVVRNSNNATRTVVAATVNENGIQWPAETINIDEVVREIRGLMAPTRRNFAISLSPKTDEIDYQAINLNRLKSGIVYPFYFSDGLYWPLVFLKSSKNGKPEAQRHVEALTSCKSFSGKYASRYLLTTTKEEDSATKKFEDAYADSDGDWADYSTKPGRFSNRAGFKPHYDTSNDSFEVQKQRAVDSLNSQYEKERNELDAFGRYTDEYRKRKDRAQYQNHIKTHLRELVRDARLDAFSFKEEFKDFEGGFEDYPGTRVEPYENDWYSHGYTLYSHTRDAAYADYMHDVCKPYEDMLPPTEYHEIFNEWCFTPMLASLHYQLKKNAFDVLSPQDVKDMEARHRKYIGLVQKERKFSLEQALDVCKLTDYDKRQWTILHDQLVTHFKDFPSISGLVYDRNTNLLANVNRNLKHLFSTIYRDDSPPDDQF, MAHHHHHHMELEEFWLTDGSISDWGEVKKFCGFANTLRTIYVERNPIEQDKRYRDKVYMNLPFVTQIDSWPVVNKDNLEGDRLIQRRAS, MSLEEYNLIKPSHCKCQIVELEDIYRRDLNLLVALRVLIEESSVSKAATRLNLSQSAMSRVLGRLRDLLGDPLFTRQGQHLIPTQKALEIDRSLGEPLESLRQLLSPVEFDPQQCDQTFTIATTDYAMQTILPFALPRIYQEAPNVSFNFLPLQHDRLSDQLTYEGADLAICRPTGPVEPLRSEILGRVGVLCLLSKQHPLANQEMSLDDYLSHPHAMIAISDGVKALIEQALIDKPQRKMVLRAYHLEAALAIVDTLPIIITVPADLAYLVAERYDLVVKPLPFQFTPFDYSMIWHARCEHSPAQEWLRSVVREECSRLIAKRIEDMGLNEGHHHHHH, MYGISVFLGEEITNDTIIYIKKMKALGFDGIFTSLHIPEDDTSLYRQRLTDLGAIAKAEKMKIMVDISGEALKRAGFSFDELEPLIELGVTGLRMDYGITIEQMAHASHKIDIGLNASTITLEEVAELKAHQADFSRLEAWHNYYPRPETGIGTTFFNEKNRWLKELGLQVFTFVPGDGQTRGPIFAGLPTLEKHRGQNPFAAAVGLMADPYVDAVYIGDPTISERTMAQFGYYHQTNQFLLEVAPSESRYLKRILGTHTNRLDAARDVLRSELSRTSEMFRKDEIATIESEQTEARPVGTVTIDNEKYGRYMGEIQVTLVDLPKDEKVNTITRIIEKDQTILPLIKAGNQFTLVTEGTIENEFRKLNN, MIMASSAAASISMITLRNLSRNHQSHQSTFLGFSRSFHNQRISSNSPGLSTRARSTTSSTGGFFRTICSSSSNDYSRPTKIQELNVYEFNEGDRNSPAVLKLGKKPDQLCLGDLVPFTNKLYTGDLTKRIGITAGLCVLIQHVPEKKGDRFEASYSFYFGDYGHISVQGPYLTYEDTFLAITGGSGVFEGAYGQVKLRQLVYPTKLFYTFYLKGVAADLPVELTGKHVEPSKEVKPAAEAQATQPGATIANFTN, MAGDRKRGFIRPDEDYALIEPQRWGLPDYGDSKEKKAKQTAFNYDPSWVPNFDEPEEEQALELTEEQIELIKQGAYQEGLYQGQEAGFKQGYDKGKEEGLQAGHAEGLELGKAEGVSAGQEFIQQQVEVFMNLANQFAQPLELMNAQVEKQLVDMVLCLVKEVVHVEVQTNPQIILDTVKQSVEALPISGHPITLHLNPEDVAIIRSAYGEEDLDCRNWTLVSEPSLNRGDVQIEAGESSINYRMEERIKSVLHSFCGANRHQEGELEHHHHHH, MGHHHHHHSHMSGTEEAILGGRDSHPAAGGGSVLCFGQCQYTAEEYQAIQKALRQRLGPEYISSRMAGGGQKVCYIEGHRVINLANEMFGYNGWAHSITQQNVGEYALQQWGLLHCPAPAESLLWVRR, MLNEGAKNTEKQKVMEIITVAEPMSESELESIRNFLFRIIRREFGFGYIPEYHRDIINLEEYYLKPPRNIFLFASQGGRVIGTLGLRAYDREFEGLNYDPETTASLWRVFVDEDHRRMGVASRLVEIAEKEAASLGYQRIYLHTHKYVGGALEFWLSRGYRVTVDTGNELGTVHMEKTLSCNSNAITRIPEKTSELSHSLPRTQKV, MSLSDAISFRPMTEADLDAVLKIEYAAFSHPWTRGIFSEGLKNYHCWLMFEGSQQVGHGVIQIILDEAHLLNITVKPESQGRGLGLRLLEHLMREAAGHQARECFLEVRASNQAAYRLYERYGFNEIGRRRDYYPAVGGREDALVMACTLFDEGHHHHHH, MSLAIKMLAIDLDGTLLTDSKTILPGTYKALQEAKAAGIKIVLTSGRPLSGIKGYAEELGLSGSEEYAILFNGAVVQNLDGRVLISHDLDFGDFNTLLHMQRLSDVNLDFETPDRFYTLDKRISIRLQIDGAETKNQLWIQDRSDFKKDFTFAKAVYQCDDPDQVDRLWNRLPDWFFQSYAVVRSWPEVVEVGSLAASKGYAVSELASRLGLSNSEVMIFGDQGNDRSMFEIPDFKRVAMGNAIDEIKDLADYVTDTNERDGIAKALRKLVLEGHHHHHH, MRCLALDIGGTKIAAAIVKNGEIEQRQQIHTPRENVVEGMHQALGKLLADYEGQFDYVAVASTGIINNGILSALNPKNLGGLAEFPLKASIAKHTDKPIGLLNDAQAATYAEYQLQNSEQVSNFVFITVSTGVGGGIVLNQILQTGSRGIAGHIGHTLADPNGAICGCGRRGCVEAIASGRAIEAVSSQWEEPCDPKEVFERFRKNDEKATALVERSAKAIANLIADLVISLDIQKIAIGGSVGLAEGYLSLVEKYLQDFPSIYCCEIETAKFGQDAGLIGAAYWVKDVLLDKPEGTIYGLEHHHHHH
